B1: G11 antibody (scFv, part only; not given: linker between domains, part only)
scFv, part: QAALTQPSSVSANPGEIVEITCSGGGTYYGWYQQKSPGSAPVTMIYQNNQRPSNIPSRFSGSGSGPANTLTITGVRAEDEAVYYCGGYDSSAGYATFGAGTTLTVLAVTLDESGGGLQTPGGGLSLVCKASGFSISSYSMYWVRQAPGKGLEFVASISSDGSDTSYGSAVKGRATISRDNGQSTVRLQLNYLRAEDTGTYFCAKPTGGYYTWYETGSIDTWGHGTEVIVSS
B2: G05 antibody (scFv, V domains shown)
VH: AVTLDESGGGLQTPGRALSLVCKASGFTFSSYAMHWVRQAPGKGLEFVAGIDNIGSYTRYGAAVKGRVTISRDNGQSIVRLQLDNLRAEDTGTYYCAKSAYGGSCCGPAYIDAWGHGTEVIVSS
VL: QAALTQPSSVSANPGETVEITCSGGGRSSYYGWYQQKSPGSAPVTLIYDNTNRPSNIPSRFSGSKSGSTATLTITGVQGEDEAVYFCGSADSSTTGIFGAGTTLTVL
notes: Chicken antibody from an scFv library (VH and VL joined by a flexible linker); also called scFv fragment of G05

Experiments:
[1] = biological target: plasminogen (human) (UniProt P00747); assay: SPR, multi-cycle; G11 immobilised on the chip, plasminogen injected as analyte; 1:1 Langmuir fit
[2] = biological target: plasminogen (human) (UniProt P00747); assay: SPR (Biacore T200), antibody immobilised; FIG. 2
[3] = biological target: plasminogen (human) (UniProt P00747); assay: cell-based or functional assay
[4] = biological target: unactivatable mutant of plasminogen (recombinant plasminogen labelled with Alexa-Fluor 647) (human) (UniProt P00747); assay: SDS-PAGE fluorescence scan of the bound fraction: 0.2 µM labelled plasminogen on Group A Streptococcus cells with 7.5 µM G05
[5] = biological target: unactivatable mutant of plasminogen (recombinant plasminogen labelled with Alexa-Fluor 647) (human) (UniProt P00747); assay: flow cytometry: 22.2 nM Alexa-Fluor 647 plasminogen on Group A Streptococcus cells with 2.22 µM G05
[6] = biological target: plasminogen (human) (UniProt P00747); assay: SPR (Biacore T200), antibody immobilised; FIG. 1
[7] = biological target: T1, plasmin (human, UniProt P00747 20-580; P00747 581-810); assay: SPR, multi-cycle; G05 immobilised on the chip, plasmin injected as analyte; 1:1 Langmuir fit
T1 construct: Bought plasmin (Haematologic Technologies) is named in the activity assay; also called Plm; PLM
T1 sequence (P00747 20-580, chain 1 of 2): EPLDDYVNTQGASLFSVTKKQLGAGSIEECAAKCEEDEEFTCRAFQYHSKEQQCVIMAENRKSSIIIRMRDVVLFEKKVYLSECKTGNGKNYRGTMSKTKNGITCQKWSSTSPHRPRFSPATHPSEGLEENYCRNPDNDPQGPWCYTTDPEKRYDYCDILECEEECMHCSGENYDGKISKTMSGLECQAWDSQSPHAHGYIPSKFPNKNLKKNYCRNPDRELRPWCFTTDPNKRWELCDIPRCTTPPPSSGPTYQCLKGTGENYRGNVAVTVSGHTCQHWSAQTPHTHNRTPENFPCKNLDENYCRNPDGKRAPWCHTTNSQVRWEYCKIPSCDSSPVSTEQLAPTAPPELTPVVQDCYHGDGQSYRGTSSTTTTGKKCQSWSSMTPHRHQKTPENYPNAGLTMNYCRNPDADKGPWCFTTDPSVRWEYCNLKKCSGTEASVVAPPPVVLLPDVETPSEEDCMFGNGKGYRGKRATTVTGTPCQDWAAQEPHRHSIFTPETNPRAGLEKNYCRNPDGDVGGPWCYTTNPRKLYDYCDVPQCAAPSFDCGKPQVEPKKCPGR
T1 sequence (P00747 581-810, chain 2 of 2): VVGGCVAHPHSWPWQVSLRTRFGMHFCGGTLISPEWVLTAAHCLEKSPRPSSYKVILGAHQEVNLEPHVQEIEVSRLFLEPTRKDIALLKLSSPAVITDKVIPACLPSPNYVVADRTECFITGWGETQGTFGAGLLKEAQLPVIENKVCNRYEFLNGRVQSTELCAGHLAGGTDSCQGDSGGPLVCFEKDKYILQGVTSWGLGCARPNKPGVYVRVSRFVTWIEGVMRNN
Source text: Dotted lines represent 1:1 Langmuir model fit to experimental data.

[8] = biological target: plasminogen (human) (UniProt P00747); assay: SPR, multi-cycle; G05 immobilised on the chip, plasminogen injected as analyte; 1:1 Langmuir fit

Binder | Kd [1] [nM] | koff [1] [s⁻¹] | kon [1] [M⁻¹ s⁻¹] | fold greater affinity for plasminogen compared to plasmin [2] [fold] | IC50 of tPA-mediated plasminogen activation in solution (20 nM plasminogen, 20 mM EACA, 4 nM tPA, fluorogenic plasmin substrate) [3] [nM] | IC50 of tPA-mediated plasminogen activation on a preformed fibrin clot (100 nM plasminogen) [3] [nM] | percent reduction in plasminogen binding to GAS cells [4] [%] | percent inhibition of plasminogen binding to GAS cells [5] [%] | fold greater affinity for plasminogen compared to plasmin [6] [fold] | Kd [7] [nM] | koff [7] [s⁻¹] | kon [7] [M⁻¹ s⁻¹] | Kd [8] [nM] | koff [8] [s⁻¹] | kon [8] [M⁻¹ s⁻¹]
B1 | 14 | 0.0018 | 420000 | 10 | 20 | 47 | – | – | – | – | – | – | – | – | –
B2 | – | – | – | – | 17.3 | 292 | 70 | 40 | 10 | 0.76 | 0.00046 | 640000 | 7.9 | 0.00071 | 409000
